Measured values as given in paper PMC5117957 (Journal of immunology (Baltimore, Md. : 1950), 2016).

Target: gp120 (derived from isolate YU2) (HIV-1 isolate YU2, UniProt P35961)
Experiment: ELISA

B1: CD4bs MAb F105 (antibody, V domains shown)
VH: QVQLQESGPGLVKPSETLSLTCTVSGGSISSHYWSWIRQSPGKGLQWIGYIYYSGSTNYSPSLKSRVTISVETAKNQFSLKLTSMTAADTAVYYCARGPVPAVFYGDYRLDPWGQGTLVTVSS
VL: EIVLTQSPGTLSLSAGERATLSCRASQSVSSRYLAWYQQKPGQAPRLLIYGASSRATGIPDRFSGSGSGTDFTLTISRVEPEDFAVYYCQQYDNSVCTFGQGTKLEIK
B1: binds.
